In paper PMC9795466:

Biological target: thrombin (human, UniProt P00734;P00734 328-363;364-622)
Assay: organic electrochemical transistor

For TTTTTAGTCCGTGGTAGGGCAGGTTGGGGTGACT (ssDNA, 5' DBCO-TEG) [DBCO-HD22 thrombin aptamer], the Kd was 103 ± 44 nM.
